In US20170166894A1, “APTAMERS FOR TOPICAL DELIVERY” (GlaxoSmithKline Intellectual Property Development Limited, published 2017):

Legend:
[1] = molecular target: T1, IL-23 (p40/p19 heterodimer), endogenous from activated monocytes (Homo sapiens, UniProt P29460;Q9NPF7 SEQ:23-328,SEQ:20-189); experiment: cell_activity; STAT3 inhibition assay; compensatory pair restores activity; IL-23 source not stated for this assay
[2] = molecular target: T1, IL-23 (p40/p19 heterodimer), endogenous …; experiment: cell_activity; STAT3 inhibition assay; disrupts G2-C30 loop-tail tertiary contact; IL-23 source not stated for this assay
[3] = molecular target: IL-23 (p40/p19 heterodimer), recombinant human (Homo sapiens, UniProt P29460;Q9NPF7 SEQ:23-328,SEQ:20-189); experiment: in presence of competitor tRNA (18,000-fold excess); conditions: tags: R&D Systems 1290-IL-010/CF (catalogue number stated for the selection)
IL-23 (p40/p19 heterodimer), recombinant human, sequence (P29460 23-328, chain 1 of 2): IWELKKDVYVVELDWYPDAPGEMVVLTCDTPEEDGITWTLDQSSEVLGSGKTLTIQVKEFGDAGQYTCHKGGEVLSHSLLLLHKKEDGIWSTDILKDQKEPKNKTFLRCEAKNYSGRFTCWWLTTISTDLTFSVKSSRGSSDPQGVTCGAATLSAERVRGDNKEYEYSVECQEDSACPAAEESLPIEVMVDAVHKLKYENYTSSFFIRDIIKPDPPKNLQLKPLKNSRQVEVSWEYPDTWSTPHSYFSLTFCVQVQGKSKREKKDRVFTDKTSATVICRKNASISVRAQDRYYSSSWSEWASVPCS
IL-23 (p40/p19 heterodimer), recombinant human, sequence (Q9NPF7 20-189, chain 2 of 2): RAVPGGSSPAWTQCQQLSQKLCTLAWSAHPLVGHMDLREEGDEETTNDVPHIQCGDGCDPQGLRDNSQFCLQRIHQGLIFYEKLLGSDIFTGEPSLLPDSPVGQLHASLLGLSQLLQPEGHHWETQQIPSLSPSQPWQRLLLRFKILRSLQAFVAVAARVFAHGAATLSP

[4] = molecular target: T1, IL-23 (p40/p19 heterodimer), endogenous …; experiment: cell_activity; STAT3 activation in PHA blasts, endogenous IL-23
Experimental: Additionally, the ability of ARC20122 as well as its minimer ARC32225 to inhibit IL-23 dependent stimulation of STAT3 activity in PHA-Blast cells was tested. This assay utilized endogenous IL-23 produced from purified monocytes as described herein. […] ARC32225 performed slightly better than its parent clone with an IC₅₀ of 0.075 nM±0.030 nM. In both cases, the activity was markedly better than the control anti-p19 antibody, IC₅₀=0.69 nM±0.12 nM.
(§1) The ability of ARC32225 to inhibit endogenous IL-23 activation of PHA/IL-2 activated T-cells was tested by measuring levels of phospho-STAT3 (“phospho-STAT3 assay”). The binding of IL-23 to its receptor on activated T-cells stimulates several STAT pathways, including STAT3. Peripheral Blood Mononuclear Cells (PBMC) from fresh human blood were isolated by centrifugation in a Histopaque gradient and treated with PHA/IL-2 to enrich for T-cells and to upregulate IL-23 receptors. Cells were serum starved and treated with endogenous IL-23 for 15 minutes, and then lysed. Relative levels of phospho-STAT3 in IL-23 treated lysates, in the presence and absence of ARC32225 or a neutralizing p19 antibody, were measured by ELISA (Cell Signaling Technologies, Danvers, Mass.). Titrations of aptamer/antibody were used to generate inhibition curves from which IC₅₀ determinations were made.

[5] = molecular target: T1, IL-23 (p40/p19 heterodimer), endogenous …; experiment: cell_activity; phospho-STAT3 ELISA in PHA/IL-2 T-cells, seven titrations; a separate comparison with ARC20122 gave 0.075±0.030 nM (p832)
Experimental: as §1
Percent inhibition was recorded for each concentration tested for all donors (data not shown). Individual IC50 for each donor were also recorded (data not shown).

T1 sequence (P29460 23-328, chain 1 of 2): as the sequence (P29460 23-328, chain 1 of 2) above
T1 sequence (Q9NPF7 20-189, chain 2 of 2): as the sequence (Q9NPF7 20-189, chain 2 of 2) above

B1: ARC32225 G2A/C30U (ssRNA)
RNA: AAGGAAAUCAGGCUUUAUCGGGCGCCGCUUCCUGUGCCAUCGUCCGAGAGUAGGUAGUCUGU
modifications: mixed 2'-OMe and 2'-F as parent [mixed 2'-OMe and 2'-F as parent (positions not given)]
Binder B1 has an IC50 [1] of 0.5 nM.

B2: ARC32225 G2A (ssRNA)
RNA: AAGGAAAUCAGGCUUUAUCGGGCGCCGCUCCCUGUGCCAUCGUCCGAGAGUAGGUAGUCUGU
modifications: mixed 2'-OMe and 2'-F as parent [mixed 2'-OMe and 2'-F as parent (positions not given)]
For B2, the IC50 [2] was 108 nM.

B3: ARC20122 (ssRNA)
RNA: GGAGGGAAAAGUUAUCAGGCUUCUAUCGGGCGCCGCGUUUUCCCUGUGUUAGCCAUCGUCCGACGAGUAGGCUAGUCUGAUGCC
modifications: 2'-OMe A and G, 2'-F C and U (mA,mG,fC,fU)
B3 gave a Kd [3] of 9.1 nM and an IC50 [4] of 0.26 nM.

B4: ARC32225 (ssRNA)
RNA: AGGGAAAUCAGGCUUUAUCGGGCGCCGCUCCCUGUGCCAUCGUCCGAGAGUAGGUAGUCUG
modifications: mixed 2'-OMe and 2'-F as printed (10 mA, 1 fA, 14 mG, 6 fG, 3 mC, 13 fC, 1 mU, 13 fU); 3' idT
With B4 the IC50 [5] was 0.296 nM.
